From paper PMC4692385, “Identification of Thyroid Hormones and Functional Characterization of Thyroid Hormone Receptor in the Pacific Oyster Crassostrea gigas Provide Insight into Evolution of the Thyroid Hormone System” come the findings set out here.

One data set addresses rCgTR (Crassostrea gigas, UniProt A0A0F6V015 1-479). Briefly: EMSA; no ligand; LightShift Chemiluminescent EMSA kit (Pierce), manufacturer's instructions; buffer, salt, pH and temperature not stated; 100-fold cold probe competition; anti-His supershift. As to conditions: protein: recombinant, tags: pET30a, label: biotin, blunt.
In a further data set the target is rCgTR1-240 (Crassostrea gigas, UniProt A0A0F6V015 1-240). Briefly: EMSA; no ligand; homodimer and monomer bands; LightShift Chemiluminescent EMSA kit (Pierce), manufacturer's instructions; buffer, salt, pH and temperature not stated; 100-fold cold probe competition; anti-His supershift. Conditions: protein: recombinant, tags: pET30a, label: biotin, blunt.
Sequence of rCgTR1-240 (A0A0F6V015 entry or part of it): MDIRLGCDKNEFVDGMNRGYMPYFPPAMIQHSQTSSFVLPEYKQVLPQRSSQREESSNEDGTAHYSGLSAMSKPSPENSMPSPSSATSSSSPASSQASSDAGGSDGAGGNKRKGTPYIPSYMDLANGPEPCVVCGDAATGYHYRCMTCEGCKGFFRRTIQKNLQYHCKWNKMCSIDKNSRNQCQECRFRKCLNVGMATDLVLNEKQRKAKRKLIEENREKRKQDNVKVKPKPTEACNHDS

Sequence of rCgTR (A0A0F6V015 entry or part of it): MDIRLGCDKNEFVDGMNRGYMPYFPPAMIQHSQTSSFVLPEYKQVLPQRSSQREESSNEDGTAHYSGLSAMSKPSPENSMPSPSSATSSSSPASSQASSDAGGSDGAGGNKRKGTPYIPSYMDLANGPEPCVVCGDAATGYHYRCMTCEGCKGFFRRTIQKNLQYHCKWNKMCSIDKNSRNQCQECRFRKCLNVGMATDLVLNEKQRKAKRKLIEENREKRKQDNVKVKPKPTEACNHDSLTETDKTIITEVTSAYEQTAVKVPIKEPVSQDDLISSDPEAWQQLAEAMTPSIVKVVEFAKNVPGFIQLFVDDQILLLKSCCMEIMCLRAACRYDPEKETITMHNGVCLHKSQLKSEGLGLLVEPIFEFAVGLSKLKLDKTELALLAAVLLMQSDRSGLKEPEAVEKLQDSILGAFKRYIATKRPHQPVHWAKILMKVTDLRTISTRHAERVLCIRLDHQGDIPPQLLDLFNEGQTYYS

B1: DR4 (dsDNA)
DNA 1: CCGTAAGGTCACAGGAGGTCACTCG
DNA 2: CGAGTGACCTCCTGTGACCTTACGG
Take B1: in the data set with rCgTR, the binding result is recorded as “binds”.

B2: DR0 (dsDNA)
DNA 1: CCGTAAGGTCAAGGTCACTCG
DNA 2: CGAGTGACCTTGACCTTACGG
In the case of B2, in the data set with rCgTR, the binding result is “binds”.

B3: DR5 (dsDNA)
DNA 1: CCGTAAGGTCACCAGGAGGTCACTCG
DNA 2: CGAGTGACCTCCTGGTGACCTTACGG
Consider B3, for which the binding result with rCgTR is “binds”.

B4: CgDR5 (dsDNA)
DNA 1: GTCCGTGATCACGGGTAGGTCAAACTG
DNA 2: CAGTTTGACCTACCCGTGATCACGGAC
For the molecule B4, the binding result in the data set with rCgTR is “binds”.

B5: DR1 (dsDNA)
DNA 1: CCGTAAGGTCACAGGTCACTCG
DNA 2: CGAGTGACCTGTGACCTTACGG
Regarding B5, the binding result with rCgTR is on record as “binds”.

B6: DR3 (dsDNA)
DNA 1: CCGTAAGGTCACAGAGGTCACTCG
DNA 2: CGAGTGACCTCTGTGACCTTACGG
Take B6: the binding result in the data set with rCgTR is “binds”.

B7: DR2 (dsDNA)
DNA 1: CCGTAAGGTCACAAGGTCACTCG
DNA 2: CGAGTGACCTTGTGACCTTACGG
Consider B7, for which the binding result with rCgTR and in the data set with rCgTR1-240 was “binds” each time.
